One block for each sequence: values may come before it. Where no end group is shown, it is not given here.
Tests used:
β2 adrenergic receptor = β2 adrenergic receptor (Homo sapiens, UniProt P07550); assay: ELISA binding of peptides panned from the Gs library to β2 adrenergic receptor; conditions: recombinant reconstituted β2 adrenergic receptor; peptides selected from Gs library
Source text: The methods of Example 7 were repeated using recombinant reconstituted β2 adrenergic receptor panned with the Gs Library.

rhodopsin [1] = target: T1, rhodopsin (Bos taurus, UniProt P02699); assay: ELISA binding of lysates of peptides panned from the Gt library to rhodopsin; parameters: species or system bovine; conditions: OD450 for wells with receptor minus OD450 for wells with no receptor
T1 construct: Bovine rod outer segments (rhodopsin-containing membranes) were prepared from fresh retinas; from tissue; host or cells: bovine retina, rod outer segment membranes (EDTA- and urea-washed)
T1 sequence (P02699 whole entry): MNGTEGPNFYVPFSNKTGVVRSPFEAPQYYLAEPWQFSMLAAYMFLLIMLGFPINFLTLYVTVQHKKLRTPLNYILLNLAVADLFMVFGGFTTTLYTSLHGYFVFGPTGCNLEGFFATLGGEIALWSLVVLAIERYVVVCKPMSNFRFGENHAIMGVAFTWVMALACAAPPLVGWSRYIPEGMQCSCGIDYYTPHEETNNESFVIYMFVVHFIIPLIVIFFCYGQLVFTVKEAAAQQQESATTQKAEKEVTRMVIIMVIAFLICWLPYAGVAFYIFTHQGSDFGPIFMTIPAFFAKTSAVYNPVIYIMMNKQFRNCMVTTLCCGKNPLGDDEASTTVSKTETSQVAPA
Procedure: The panning process is illustrated in FIG. 1. For screening of the library by “panning,” rhodopsin receptors prepared according to Example 5 were immobilized directly on Immulon 4 (Dynatech) microtiter wells (0.1-1 μg of protein per well) in cold 35 mM HEPES, pH 7.5, containing 0.1 mM EDTA, 50 mM KCl and 1 mM dithiothreitol (HEK/DTT). After shaking for one hour at 4° C., unbound membrane fragments were washed away with HEK/DTT. The wells were blocked with 100 μl 2% BSA in HEKL (35 mM HEPES; 0.1 mM EDTA; 50 mM KCl; 0.2 M α-lactose; pH 7.5, with 1 mM DTT). For rounds 1 and 2, BSA was used for blocking; in later rounds 1% nonfat dry milk was used. For the first round of panning, about 24 wells of a 96-well plate were used. In subsequent rounds, 8 wells with receptor and 8 wells without receptor were prepared.
The Gt library was thawed (2 mL aliquot) and mixed with 6 mL lysis buffer on ice. Lysis buffer contains 4.25 mL HE (25 mM HEPES: 0.1 mM EDTA; pH 7.5); 1 mL 50% glycerol; 750 μL 10 mg/mL protease-free BSA in HE; 10 μL 0.5 M DTT; and 6.25 μL 0.2 M PMSF. Freshly prepared lysozyme solution (150 μL 10 mg/mL lysozyme in cold HE) was added and the tube was gently inverted several times and incubated on ice for no more than two minutes. The extent of lysis is evidenced by an increase in viscosity that can be observed by noting the slow migration of bubbles to the top of the tube after mixing. Lysis was terminated by mixing in 2 mL 20% lactose and 250 μL 2M KCl. The tube was centrifuged immediately at 13,000×g for 15 minutes at 4° C. and the supernatant transferred to a new tube. A small aliquot of 0.1% (the PRE sample) was saved in a separate, labeled tube. […] Immediately thereafter, the crude bacterial lysate from the peptide library (200 μL) was added to each well and allowed to shake gently for one hour at 4° C. For round 2, this same procedure was followed. In round 3, the amount of lysate used was reduced to 100 μL. In subsequent rounds, the lysate was diluted 1:10 in HEKL/BSA. In all rounds, 5-10 μL 200 μM native peptide was added to the wells to chase off peptides that were bound with lower affinity.
The methods of Example 7 repeated using rhodopsin screening with a Gt library. To identify the rank order of binding, the lysates were analyzed using ELISA methods in which the secondary antibody was conjugated to HRP. Following addition of the substrate, the microplate was read using a spectrophotometer. The binding is the OD450 for wells with receptor—OD450 for wells in which no receptor (control wells with empty lipid vesicles).

[2] = target: T2, light-activated rhodopsin (Bos taurus, UniProt P02699); assay: ELISA binding of MBP-peptide fusion proteins to light-activated rhodopsin; parameters: species or system bovine; conditions: for EC50 / ELISA OD450: MBP-high affinity peptide fusion proteins; for EC50: read-out: MII binding EC50; for ELISA OD450: absorbance at OD450 in a panning ELISA
T2 construct: Bovine rod outer segments (rhodopsin-containing membranes) were prepared from fresh retinas; from tissue; host or cells: bovine retina, rod outer segment membranes (EDTA- and urea-washed)
T2 sequence (P02699 whole entry, the tested form may be a part): as the sequence (P02699 whole entry) above
Source text: The entire population of peptide-coding sequences identified in round 4 of panning (see Example 7) was transferred from pJS142 to pELM3 (New England Biolabs). This plasmid is a pMal-c2 derivative with a modified polylinker, inducible by isopropyl β-thiogalacto-pyranoside and containing the E. coli malE gene with a deleted leader sequence and leads to cytoplasmic expression of MBP fusion proteins. The MBP-carboxyl terminal peptide analog fusion proteins were expressed in E. coli.
For the assay, in the dark, 1 μg/well of ROS membranes (rhodopsin) as described in Example 5 was directly immobilized on microtiter wells in cold HEK/DTT for one hour at 4° C. The wells were rinsed, blocked with 1% BSA in HEK/DTT for one hour at 4° C. and rinsed again. Bound rhodopsin was activated by exposure to light for 5 minutes on ice before addition of the MBP fusion proteins (crude bacterial lysates were diluted 1:50 in HEK with 1 μM dithiothreitol; purified proteins were used at 0.2-120 nM). The MBP-Gαt340-350K341R (pELM17) fusion protein and MBP with linker sequence only (pELM6) were present in control wells at 50 nM final concentration. After 30 minutes, wells were washed and rabbit anti-MBP antibody (New England Biolabs) was added. The anti-MBP antibody was used at a 1:1000 dilution for crude lysates and a 1:3000 dilution for purified proteins. After 30 minutes, wells were rewashed and goat anti-rabbit antibody conjugated to horseradish peroxidase (1:7500 dilution for crude lysates; 1:10,000 dilution for purified proteins; Kierkagaard & Perry Laboratories) was added. After 30 minutes, the plate was washed four times with PBS containing 0.05% Tween™20. Horseradish peroxidase substrate (100 μl) was added and color was allowed to develop for about 20 minutes. The reaction was stopped by addition of 100 μl 2N sulfuric acid. Values indicate absorbance at OD450. The positive control for the assay was pELM 17, which encodes the MBP fusion protein Gαt340-350K341R. pELM6, which expresses MBP protein fused to a linker sequence only, served as the negative control. “No lysate” control wells were included to reflect any intrinsic, non-specific binding within the assay. […]

rhodopsin [3] = target: T1, rhodopsin; assay: "extra MII" assay: stabilization of metarhodopsin II; format: biochemical, bovine; conditions: for EC50: MBP-high affinity peptide fusion proteins
Source text: Rhodopsin can be measured spectrophotometrically in many of its conformational states. The high affinity, biologically active rhodopsin state can be easily differentiated from its precursor, MI, by the “extra” MII assay. See Example 35. This assay relies on the observation that under conditions of high pH and low temperature, MII is stabilized in the presence of Gt and can be spectrophotometrically measured. The ability of the C-terminal peptide to stabilize Meta II in the same manner as the heterotrimeric Gt, provides the tools to investigate the structural basis of the interaction of G proteins with the agonist binding sites of activated receptors.
For the “extra MII” assay, EDTA-washed rhodopsin (Example 5; 5 μM) is incubated in a 50 mM HEPES buffer, pH 8.2, with 100 mM NaCl, 1 mM MgCl2, and 1 mM DTT at 5.3° C., in the absence or presence of varying concentrations of Gt340-350 analogs or Gt. The sample is maintained at 5.4° C. using a water-jacketed and thermostated circulator cuvette holder in an SLM Aminco DW2000 spectrophotometer at 390 and 440 nm. A flash of light bleaching 10% of the rhodopsin is presented and after a 1 min incubation, a second spectrum is measured and the difference in spectrum calculated. “Extra” MII is calculated as the difference between the absorbance at 390 and 440. Dose response curves of MII stabilization by αt340350 (λ), mutant α340-350K341L(ν), and heterotrimeric Gt (v) were analyzed by non-linear regression using the program GraphPad PRISM and are shown in FIG. 23.
EDTA-washed rhodopsin (5 μM) was incubated in a 50 mM HEPES buffer, pH 8.2, with 100 mM NaCl, 1 mM MgCl2, and 1 mM DTT at 5.3° C., and “extra” MII was measured. For compounds that enhanced MBP-8 binding over 25% using the color coded readout, dose studies were performed to generate EC50 curves. Table XXII below provides the calculated EC50 for metarhodopsin II stabilization of each compound.

PAR1 = target: T3, PAR1 (Homo sapiens, UniProt P25116); assay: ELISA binding of purified MBP clones to SF9 membranes expressing PAR1 or muscarinic M1 receptor; parameters: expressed in transfected cells; host or cells: membranes of Sf9 insect cells infected with ThR/pBluebac recombinant virus; conditions: for specificity (in words): PAR1 versus Gq-coupled muscarinic M1 receptor; for binding affinity for PAR1 (in words): purified MBP clones, SF9 membranes
T3 sequence (P25116 22-425): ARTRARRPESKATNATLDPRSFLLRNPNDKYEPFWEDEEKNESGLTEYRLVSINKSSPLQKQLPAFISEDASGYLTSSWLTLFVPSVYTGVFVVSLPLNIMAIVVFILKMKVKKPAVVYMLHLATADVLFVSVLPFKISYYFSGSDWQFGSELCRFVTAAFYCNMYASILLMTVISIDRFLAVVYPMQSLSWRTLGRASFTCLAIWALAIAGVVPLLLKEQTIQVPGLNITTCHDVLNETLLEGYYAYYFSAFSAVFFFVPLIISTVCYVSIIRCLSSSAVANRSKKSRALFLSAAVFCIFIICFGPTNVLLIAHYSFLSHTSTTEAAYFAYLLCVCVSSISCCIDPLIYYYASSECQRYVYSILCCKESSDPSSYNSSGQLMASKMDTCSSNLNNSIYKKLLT
Procedure: To identify high affinity peptides that bind PAR1, membranes prepared from mammalian cells (Chinese hamster ovary) overexpressing PAR1 were panned with the G11 peptide library. ELISA binding affinity results of selected clones are shown in FIG. 9 for their binding to membranes prepared from SF9 cells expressing either PAR1 or the Gq-coupled muscarinic M1 receptor. To quantitate the binding, purified MBP clones were analyzed using ELISA methods in which the secondary antibody was conjugated to HRP. The binding for the control MBP-Gq fusion protein is shown. The data are the average of two separate experiments done in duplicate.

Sequence: HRRHIGEFALL [BAR11]
- ELISA (β2 adrenergic receptor): .048

Sequence: ICENLKDCGLF [Clone L6]
- ELISA (rhodopsin [1]): .342

Sequence: IKENLKDCGLF [Gt, reference compound]
- EC50 [2]: 6000 nM
- ELISA OD450 [2]: .01
- EC50 (rhodopsin [3]): > 100000 nM

Sequence: ILENLKDCGLF [Clone L3]
- ELISA (rhodopsin [1]): .839

Sequence: ILESLNECGLF [Clone L34]
- ELISA (rhodopsin [1]): .603

Sequence: ILQNLKDCGLF [Clone L17]
- ELISA (rhodopsin [1]): .600

Sequence: IRGSLKDCGLF [Clone L20]
- ELISA (rhodopsin [1]): .423

Sequence: ISKNLRDCGLL [Clone L13]
- ELISA (rhodopsin [1]): .187

Sequence: IVKNLEDCGLF [Clone L8]
- ELISA (rhodopsin [1]): .257

Sequence: LHLNLKEYNLV (also: fused to MBP) [PAR-33, MBP clone, linker LSTN]
- specificity (in words) (PAR1): low specificity
- binding affinity for PAR1 (in words) (PAR1): low affinity

Sequence: LLDILKDCGLF [Clone L38]
- ELISA (rhodopsin [1]): .823

Sequence: LLENLRDCGMF [Peptide 8]
- EC50 [2]: 7.8 nM
- ELISA OD450 [2]: .54
- EC50 (rhodopsin [3]): 940 nM

Sequence: LQLNRNEYYLV (also: fused to MBP) [PAR-13, MBP clone, linker VRPS]
- binding affinity for PAR1 (in words) (PAR1): high affinity binding

Sequence: LQQKLKEYSLV (also: fused to MBP) [PAR-23, MBP clone, linker LSRS]
- specificity (in words) (PAR1): low specificity
- binding affinity for PAR1 (in words) (PAR1): low affinity

Sequence: LRENLKDCGLL [Clone L14]
- ELISA (rhodopsin [1]): .833

Sequence: MLDNLKACGLF [Clone L4]
- ELISA (rhodopsin [1]): .908

Sequence: MLDNLKDCGLF [Clone L7]
- ELISA (rhodopsin [1]): .525

Sequence: QRLNVGEYNLV (also: fused to MBP) [PAR-34, MBP clone, linker LPQM]
- binding affinity for PAR1 (in words) (PAR1): high affinity binding

Sequence: VRDILKDCGLF [Clone L15]
- ELISA (rhodopsin [1]): .621

Second part, led by results:

- ELISA (β2 adrenergic receptor): .192
Sequence: DRMHLWRFGLL [AG11]

- ELISA (β2 adrenergic receptor): .047
Sequence: ERLHRRLFQLH [BAR8]

- EC50 [2]: 42 nM
- ELISA OD450 [2]: .36
- EC50 (rhodopsin [3]): 5400 nM
Sequence: ICENLKDCGLF [MBP-10]

- binding affinity to light-activated rhodopsin (in words) [2]: high affinity
- stabilization of MII (in words) (rhodopsin [3]): stabilized MII
Sequence: LLENLRDCGMI [MBP-8]

- EC50 [2]: 10 nM
- ELISA OD450 [2]: .35
- EC50 (rhodopsin [3]): 1050 nM
Sequence: LQQVLKDCGLL [MBP-9]

- EC50 [2]: 3.8 nM
- ELISA OD450 [2]: .58
- EC50 (rhodopsin [3]): 1240 nM
Sequence: MLENLKDCGLF [MBP-18]
- binding affinity to light-activated rhodopsin (in words) [2]: even higher binding affinities than did MBP-8

- EC50 [2]: 6.6 nM
- ELISA OD450 [2]: .61
- EC50 (rhodopsin [3]): 490 nM
Sequence: MLKNLKDCGMF [MBP-24]
- binding affinity to light-activated rhodopsin (in words) [2]: even higher binding affinities than did MBP-8

- ELISA (β2 adrenergic receptor): .079
Sequence: NCMKFRSCGLF [BAR20]

- ELISA (β2 adrenergic receptor): .028
Sequence: PCIQLGQYESF [BAR40]

- ELISA (β2 adrenergic receptor): .361
Sequence: PRPRLLRFKIP [AG19]

- ELISA (β2 adrenergic receptor): .330
Sequence: QGEHLRQLQLQ [AG2]

- ELISA (β2 adrenergic receptor): .435
Sequence: QGMQLRRFKLR [AG1]

- ELISA (β2 adrenergic receptor): .218
Sequence: QRIHRRPFKFF [BAR1]

- ELISA (β2 adrenergic receptor): .054
Sequence: QRLHLRGYEFL [AG13]

- ELISA (β2 adrenergic receptor): .291
Sequence: QRLRLGPDELF [AG4]

- ELISA (β2 adrenergic receptor): .026
Sequence: QRLRLRKYRLF [BAR31]

- ELISA (β2 adrenergic receptor): .155
Sequence: QRMNLGPCGLL [AG18]

- ELISA (β2 adrenergic receptor): .217
Sequence: QRMPLRLFEFL [AG3]

- ELISA (β2 adrenergic receptor): .190
Sequence: QRMPLRQYELL [AG9]

- ELISA (β2 adrenergic receptor): .197
Sequence: QRVHLRQDELL [BAR2]

- ELISA (β2 adrenergic receptor): .185
Sequence: QWMDLRQHELL [BAR3]

- ELISA (β2 adrenergic receptor): .431
Sequence: RWLHWQYRGRG [AG20]

- EC50 [2]: 20 nM
- ELISA OD450 [2]: .66
- EC50 (rhodopsin [3]): 3500 nM
Sequence: VLEDLKSCGLF [MBP-23]

Reference: patent US7294472B2, “Method for identifying modulators of G protein coupled receptor signaling” (Caden Biosciences, priority 2001, dated 2007)
